Results reported in article PMC4445282, “Alpha-L-Fucosidase Isoenzyme iso2 from Paenibacillus thiaminolyticus” (BMC Biotechnology, 2015).

Substrate: C[C@@H]1O[C@@H](Oc2ccc([N+](=O)[O-])cc2)[C@@H](O)[C@H](O)[C@@H]1O
Assay: purified protein
Type: biochemical, Paenibacillus thiaminolyticus
Conditions: 50 mM phosphate pH 7.0, 37 °C (standard assay), substrate 0.01-35 mmol/L

B1: α-L-fucosidase iso2 (Paenibacillus thiaminolyticus) (protein)
chain: MRYRQVHLDFHTSEHISDIGRNFSKKNFQEMLQLGHVNSITVFAKCHHGWAYFPSATNEIHPRLDFDLLGAQIEAAHEIGVKVPIYISVGFDEKLAWEKPQWLMRDEADRMNWVDSFMKPGYHQFCLNTPYLDLVIEQVQEVVRKYDGDGIFLDIVGERTCYCTTCLKQMQADGLDPHNKEDVIANGRRIYANYTTRIREAIDAIKPGLPVFHNAGHIHQGRRDLMGMNSHLELESLPTGGWGYDHFPLSARYAQPTGFHFLGMTGKFHTFWGEFGGYKHPNALRYETALSLANGARCSIGDQLHPGGQMDRATYELIGKAYAEVEAKEAWCVNAVNLADVALLTVEAAGVQQESGAMYSGKVDMGAVRMLLEGKILFDIVDLESDWSGYKVLILPDSIVMKDTILPKVEAFLAAGGKVLASGRSGLNVELTRQMLPLGFTDSGLNPFRPDYFRPLCDGMANLGEAAYVMYGDGRRIELTDGTELGRREDPYFNRQAFRFCSHQHAPSSEQEGGPGMVESAQGIYIAWNVFEDYATKGSLILKEMVLFALRRLLGEQITLKTTLPAQGVTTLQHQAAERRYINHLLYASPVKRGERVEIIEDMIPLQQVEVQLQLPVTDVKRVYLAPQMTEIEFKASGGDVQFTVPQLECHQMVVVEYNE
notes: His-tagged fusion from pET16b-αLF2 (NdeI/XhoI), tag kept; E. coli BL21(DE3); Ni-NTA; primers encode start MRYRQVH and end VVEYNE
Q: With B1 as the protein, how does the Km read?
A: Its Km is 520 ± 50 µM.

Q: What about the kcat of the same protein?
A: Its kcat is 111 ± 3 s⁻¹.

Q: What about the kcat/Km of the same protein?
A: The kcat/Km was 213 ± 30 (mmol/L)^-1 s^-1.
